# Biological target: canine IL-31 (canine)
row,"IC50 (read off the curve); STAT3-SEAP reporter, canine IL-31 stimulation",Substance
1,1 to 10 nM,"Cytopoint® (Lokivetmab), a canine anti-IL31 (Cas number: 1533403-95-0) (antibody)"
2,3 nM,"Tirnovetmab, a canine anti-IL31 (Cas number: 2364504-80-1) (antibody)"

# Source: patent US20250388683A1
